Data from patent US8623997B2, “Variant Hhip1 protein and methods and uses thereof” (Curis, Inc., priority 2008, dated 2014).
Bridge positions count the residues as written; N and C are the ends. Ends that are not written are not given here.

Columns and labels:
Ptch1 = experiment: FACS assay of Shh649 binding to Ptch1 expressing 293 cells and its competition; set-up: species or system human
Protocol: (§1) Shh649 (1 nM) preincubated with indicated proteins was bound to Ptch1 expressing cells, washed and analyzed by FACS. The average mean Shh649 fluorescence intensity (MFI) of two independent dilution series was plotted versus inhibitor concentration, with error bars denoting standard deviations. […] Assays were carried out using octylated Ihh wildtype and T154I proteins. Concentration dependent relative luciferase units (RLU) are plotted as the average of four independent dilution series±standard deviation and normalized to the maximal Ihh WT stimulation on each plate as 100%. […] The data is representative of three independent experiments.
(§2) Shh is in the same orientation as in the Hhip-Shh complex in Panel A. Zn^2+ and Ca^2+ cations are shown. […] Surface representation of Shh with residues within 4.5 Å of Hhip (shaded gray) and Cdon (hatched areas). Area within dotted boarder indicates the boundaries of the Cdon footprint, which overlaps the Hhip binding surface. […] Shh histidine residues are shown as sticks with nitrogen atoms shaded dark. The Hhip L2 loop is shown in transparent surface and Zn^2+ cation is shown. Histidine 35 is not shown since the ordered portion of the Shh structure begins at L40. […] The spectral region of the histidine side chains is shown. […] The average mean Shh649 fluorescence intensity (MFI) of two independent dilution series was plotted versus protein concentration, with error bars denoting standard deviations. Ctrl refers to the His-6 (SEQ ID NO: 87) tagged HGF β protein. […] Shh649 (0.33 nM) was preincubated with 56 nM (170-fold excess) of Hhipβ12 wildtype or L2 mutant proteins, 5E1 or controls then bound to Ptch1 cells (black) or 293 cells (gray), washed and analyzed by FACS. Shh649 binding to Ptch1 cells in the absence of inhibitors was normalized to 100% and the data expressed as a percentage of this signal (average of two independent duplicates with standard deviations). Ctrl and CtrlFc refer to HGF β and the IgG1 isotype control Trastuzumab, respectively. The data is representative of at least three independent experiments.
(§3) Shh649, conjugated to Dylight 649 (Pierce) at its C-terminus (vide supra), was incubated at 0.33 or 1 nM for 1 h on ice with various Hhip or control proteins prior to incubation with HEK-293 cells (293) or 293 cells expressing full length human Patched-1 (Ptch1-293 clone 10) (Carpenter D. et al. (1998) Proc. Natl. Acad. Sci. USA 95:13630-13634) in FACS buffer (3% FBS in PBS) for 1 h on ice. After washing 3 times in FACS buffer, live cells (sorted by propidium iodide exclusion) were analyzed by flow cytometry in the APC channel using a FACSCalibur (BD Biosciences). Control proteins included His6-Shh, His6-Ihh, HGF β-His639, Trastuzumab (Genentech, Inc.) as a human IgG1 isotype control for Hhip1β12-Fc, and mIgG1 (Molecular Probes Z25105) as a murine Mab control for anti-Shh 5E1 Mab34.

Hh signaling = experiment: S12 Gli luciferase assay, activation of Hh signaling; assay type: cell-based, murine; settings: octylated Ihh wildtype and T154I proteins
Protocol: as §1
Briefly, S12 cells, which are 10T1/2 fibroblasts stably transfected with 8× Gli-binding sites fused to a luciferase reporter (Frank-Kamenetsky et al. (2002) J. Biol. 1:10), were plated at 10,000 cells/well of a white-walled clear bottomed 96-well plate (Costar 3610) for 48 hrs in regular growth medium (HG-DMEM, 10% FBS, 1% glutamine). After 24 h, the media was removed and Shh-producing HT29 cells at 20,000 cells/well were plated and the co-culture was grown in regular media. […] Gli-luciferase activity was measured using a HTS-Steady Lite luciferase detection kit (Perkin Elmer); multiple assays were carried out, each in triplicate. […]

Shh = target: T1, Shh (Homo sapiens, UniProt Q15465); experiment: NMR HSQC spectroscopy of labeled Shh with L2 loop peptides; assay type: binding; settings: 2 mM of each peptide
T1 construct: yielding Shh (residues 29-197) lacking the His6-Tag; His6 (N, cleaved yes); made in house; host or cells: E. coli Rosetta 2, minimal/M9 medium with 15NH4Cl
Description: as §2, with “The data is representative of at least three independent experiments.” left out

Shh signaling = experiment: Gli-luciferase co-culture signaling assay (S12 fibroblasts overlaid with Shh-producing HT29 cells); assay type: cell-based, murine S12 fibroblasts / human HT29 cells; settings: for IC50: 24 hrs, read-out: IC50 inhibition of Shh signaling
Description: Due to the lack of both N- and C-terminal lipid modifications of Shh and the absence of other cellular components, the in vitro assays may not fully recapitulate Hip-Shh interactions occurring in a cellular environment. Therefore, a co-culture assay consisting of murine S12 fibroblasts stably transfected with a Gli luciferase reporter gene and (Frank-Kamenetsky et al. (2002) J. Biol. 1:10) and human colorectal adenocarcinoma HT29 cells that secrete fully lipid-modified Shh (Yauch et al. (2008) Nature 455:406) was used to determine which extracellular domains of Hhip1β12 mediate inhibition of Shh signaling in mammalian cells.
Briefly, S12 cells, which are 10T1/2 fibroblasts stably transfected with 8× Gli-binding sites fused to a luciferase reporter (Frank-Kamenetsky et al. (2002) J. Biol. 1:10), were plated at 10,000 cells/well of a white-walled clear bottomed 96-well plate (Costar 3610) for […] in regular growth medium (HG-DMEM, 10% FBS, 1% glutamine). After 24 h, the media was removed and Shh-producing HT29 cells at 20,000 cells/well were plated and the co-culture was grown in regular media. After 24 h, the media was changed to 0.5% serum HG-DMEM±Hhip1β12 fragments and further incubated for 24 hrs to stimulate signaling. Gli-luciferase activity was measured using a HTS-Steady Lite luciferase detection kit (Perkin Elmer); multiple assays were carried out, each in triplicate. Data were fit to a 4-parameter sigmoidal equation, from which the IC50 was derived using Kaleidagraph (Synergy Software).

biotinylated-ShhN-Cys = target: T2, biotinylated-ShhN-Cys (Homo sapiens, UniProt Q15465); experiment: Bio-layer interferometry (Octet) binding kinetics of Hhip1β12 variants to Shh
T2 construct: ShhN-Cys (residues 24-197); His6 (N); made in house; host or cells: E. coli Rosetta 2
Protocol: The binding kinetics of the Hhip1β12 fragments as well as Hhip1β12 mutants were measured by bio-layer interferometry in the presence or absence of 10 mM EDTA on an Octet (Fortébio). Streptavidin high binding FA biosensors were loaded with biotinylated-ShhN-Cys in kinetic buffer (Fortébio). The loaded biosensors were washed and transferred to wells containing Hhip1β12 protein at concentrations of 1.2, 1.0, 0.8 and 0.6 μM in kinetic buffer. Hhip1β12 association and dissociation was measured for 30 and 20 min, respectively. Kinetic parameters (kon and koff) and affinities (KD) were calculated from a non-linear fit of the data based on a 1:1 binding model between Hhip1β12 and Shh using the Octet software. Multiple independent measurements were performed.
In order to assess the contribution of residues in the Hhip1 L1, L2 and L3 loops for binding to Shh, a series of single alanine Hipβ12 mutants were made using the QuickChange DNA mutagenesis kit (Stratagene) using the manufacturer's protocol, and their affinity for Shh was measured by bio-layer interferometry (as described in Example 2B). These mutations included Hhip1β12 mutants 1312A, E381A, M382A, D383A, D378A, T418A, Q420A, E380A, D387A and ΔL2.

[1] = target: T3, Shh649 binding to Hhip1β12 on 293 cells (Homo sapiens, UniProt Q15465); experiment: FACS: Ptch1-independent recruitment of Shh649 to 293 cells by Hhip1β12; settings: 520 nM
T3 construct: made in house; host or cells: Shh649: E. coli Rosetta 2; Hhip1β12: Tni insect cells; both added to HEK-293 cells
Description: The critical residue for 5E1 binding, S177 shown marked with an asterisk (*), resides in the area of Shh that interacts with both Hhip and Ptch1. Numbering refers to human Shh (Fuse, N. et al. (1999) Proc. Natl. Acad. Sci. USA 96:10992-10999; Pepinsky R. B. et al. (2000) J. Biol. Chem. 275:10995-11001). […] Black bars show binding to Ptch1 cells for comparison. Data are the average mean fluorescence intensity and SDs of two independent (duplicate and triplicate) experiments normalized to Shh649 binding to Ptch1 cells in the absence of other proteins (“Ctrl”) in the same way as FIG. 15J. Shh649 and Hhip1β12 are present at 45- and 10-fold higher concentrations respectively than in FIG. 15J in order to detect the Ptch1-independent binding of Shh649 to Hhip1β12.
as §3, with “Control proteins included His6-Shh, His6-Ihh, HGF β-His639, Trastuzumab (Genentech, Inc.) as a human IgG1 isotype control for Hhip1β12-Fc, and mIgG1 (Molecular Probes Z25105) as a murine Mab control for anti-Shh 5E1 Mab34.” left out

[2] = 1:1 binding model, n.d stands for no binding detected

Molecule | EC50 (Hh signaling) [nM] | binding to 293 cells at high concentrations [1] | competition of Shh649 binding to Ptch1 cells (in words) (Ptch1) | IC50 (Shh signaling; Gli-luciferase co-culture) [nM] | other results
T154I: type A1 brachydactyly mutant Ihh T154I | 330 |  |  |  | 
GCGMITLDDMEEMDGLSDFCG (disulfide 2-20 (inferred); listed as Homo sapiens) [Hhip1β12 L2 peptide] |  |  |  |  | displacement of Ptch1 L2-like peptide from Shh by ^13C, ^1H-HSQC (Shh): displaces Ptch1 L2-like peptide from Shh
D383R: Hhip L2 mutant of Hhip1β12 with D383 changed to R (protein) MLKMLSFKLLLLAVALGFFEGDAKFGERNEGSGARRRRCLNGNPPKRLKRRDRRMMSQLELLSGGEMLCGGFYPRLSCCLRSDSPGLGRLENKIFSVTNNTECGKLLEEIKCALCSPHSQSLFHSPEREVLERDLVLPLLCKDYCKEFFYTCRGHIPGFLQTTADEFCFYYARKDGGLCFPDFPRKQVRGPASNYLDQMEEYDKVEEISRKHKHNCFCIQEVVSGLRQPVGALHSGDGSQRLFILEKEGYVKILTPEGEIFKEPYLDIHKLVQSGIKGGDERGLLSLAFHPNYKKNGKLYVSYTTNQERWAIGPHDHILRVVEYTVSRKNPHQVDLRTARVFLEVAELHRKHLGGQLLFGPDGFLYIILGDGMITLDDMEEMRGLSDFTGSVLRLDVDTDMCNVPYSIPRSNPHFNSTNQPPEVFAHGLHDPGRCAVDRHPTDININLTILCSDSNGKNRSSARILQIIKGKDYESEPSLLEFKPFSNGPLVGGFVYRGCQSERLYGSYVFGDRNGNFLTLQQSPVTKQWQEKPLCLGTSGSCRGYFSGHILGFGEDELGEVYILSSSKSMTQTHNGKLYKIVDPKRPLMPEECRATVQPAQTLTSECSRLCRNGYCTPTGKCCCSPGWEGDFCRTAKCEPACRHGGVCVRPNKCLCKKGYLGPQCEQVDRNIRRVTRAGILDQIIDMTSYLLDLTSYIV |  |  | no inhibition | 57 | IC50 fold change versus wildtype Hipβ12 (Shh signaling; Gli-luciferase co-culture): ~13 fold; maximal inhibition (Shh signaling; at saturating conditions): ~50%; Shh binding of Hhip1β12 mutants (in words) (biotinylated-ShhN-Cys; bio-layer interferometry, compared with WT Hhip1β12): inability

Now from value to molecule, other results behind:

EC50 (Hh signaling) [nM] | binding to 293 cells at high concentrations [1] | Molecule | competition of Shh649 binding to Ptch1 cells (in words) (Ptch1) | IC50 (Shh signaling; Gli-luciferase co-culture) [nM] | other results
16 |  | Ihh: human Indian Hedgehog, residues 29-202 | dose dependent manner |  | 
 | bind nonspecifically to 293 cells | Hhip1β12: β-propeller-EGF1-EGF2 construct (SEQ ID NO:12), residues 193-667 of SEQ ID NO:2, lacking putative Fz domain (protein, listed as Homo sapiens) SNYLDQMEEYDKVEEISRKHKHNCFCIQEVVSGLRQPVGALHSGDGSQRLFILEKEGYVKILTPEGEIFKEPYLDIHKLVQSGIKGGDERGLLSLAFHPNYKKNGKLYVSYTTNQERWAIGPHDHILRVVEYTVSRKNPHQVDLRTARVFLEVAELHRKHLGGQLLFGPDGFLYIILGDGMITLDDMEEMDGLSDFTGSVLRLDVDTDMCNVPYSIPRSNPHFNSTNQPPEVFAHGLHDPGRCAVDRHPTDININLTILCSDSNGKNRSSARILQIIKGKDYESEPSLLEFKPFSNGPLVGGFVYRGCQSERLYGSYVFGDRNGNFLTLQQSPVTKQWQEKPLCLGTSGSCRGYFSGHILGFGEDELGEVYILSSSKSMTQTHNGKLYKIVDPKRPLMPEECRATVQPAQTLTSECSRLCRNGYCTPTGKCCCSPGWEGDFCRTAKCEPACRHGGVCVRPNKCLCKKGYLGPQCE | inhibit Ptch1-specific Shh cell binding in a dose-dependent manner | 5 | Kd (biotinylated-ShhN-Cys; [2]): 220 nM; koff × 10^−4 (biotinylated-ShhN-Cys; [2]): 9.4 × 10^−4 [s^−1]; kon × 10^3 (biotinylated-ShhN-Cys; [2]): 4.3 × 10^3 [M^−1 × s^−1]
 | bind nonspecifically to 293 cells | Hhip1β12-Fc: Fc-tagged Hhip1β12 (protein, left off: a dimerising Fc or GST) SNYLDQMEEYDKVEEISRKHKHNCFCIQEVVSGLRQPVGALHSGDGSQRLFILEKEGYVKILTPEGEIFKEPYLDIHKLVQSGIKGGDERGLLSLAFHPNYKKNGKLYVSYTTNQERWAIGPHDHILRVVEYTVSRKNPHQVDLRTARVFLEVAELHRKHLGGQLLFGPDGFLYIILGDGMITLDDMEEMDGLSDFTGSVLRLDVDTDMCNVPYSIPRSNPHFNSTNQPPEVFAHGLHDPGRCAVDRHPTDININLTILCSDSNGKNRSSARILQIIKGKDYESEPSLLEFKPFSNGPLVGGFVYRGCQSERLYGSYVFGDRNGNFLTLQQSPVTKQWQEKPLCLGTSGSCRGYFSGHILGFGEDELGEVYILSSSKSMTQTHNGKLYKIVDPKRPLMPEECRATVQPAQTLTSECSRLCRNGYCTPTGKCCCSPGWEGDFCRTAKCEPACRHGGVCVRPNKCLCKKGYLGPQCE | inhibit Ptch1-specific Shh cell binding in a dose-dependent manner |  | 
